In patent publication US20240270821A1, “GIP/GLP1/GCG TRI-RECEPTOR AGONISTS AND USES THEREOF” (priority 2023, published 2024):
Positions count from the first letter of the chain named.

T1: human GIP receptor (human) (UniProt P48546)
T1 sequence (looked up): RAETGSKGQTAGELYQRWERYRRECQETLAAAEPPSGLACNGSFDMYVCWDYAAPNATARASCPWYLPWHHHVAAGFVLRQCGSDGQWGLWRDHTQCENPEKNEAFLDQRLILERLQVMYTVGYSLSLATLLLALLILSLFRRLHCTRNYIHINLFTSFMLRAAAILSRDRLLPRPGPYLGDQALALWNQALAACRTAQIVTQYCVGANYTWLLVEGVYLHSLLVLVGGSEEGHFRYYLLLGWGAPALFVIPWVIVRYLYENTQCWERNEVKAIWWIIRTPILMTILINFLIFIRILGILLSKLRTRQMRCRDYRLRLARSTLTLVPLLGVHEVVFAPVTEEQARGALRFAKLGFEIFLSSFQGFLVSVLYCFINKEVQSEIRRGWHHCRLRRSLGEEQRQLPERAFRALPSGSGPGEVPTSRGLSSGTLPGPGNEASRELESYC

B1: Example 257 (peptide)
chain: YXQGTFTSDFSXXLDKKAQXAFIEYLLEAGPSSGXPPPSGH
modifications: synthetic construct; SITE 2: note = 2-Aminoisobutyric Acid; SITE 12: note = L-ornithine; SITE 13: note = alpha-methyl-leucine; SITE 17: note = Lysine is chemically modified through conjugation of the epsilon-amino group of the Lysine side chain with (2-[2-(2-Amino-ethoxy)-ethoxy]-acetyl)2-(gamma-Glu)
B2: Example 258 (peptide)
chain: B1 chain with H41X
modifications: synthetic construct; SITE 2: note = 2-Aminoisobutyric Acid; SITE 12: note = L-ornithine; SITE 13: note = alpha-methyl-leucine; SITE 17: note = Lysine is chemically modified through conjugation of the epsilon-amino group of the Lysine side chain with (2-[2-(2-Amino-ethoxy)-ethoxy]-acetyl)2-(gamma-Glu)
B3: Example 259 (peptide)
chain: B1 chain with X35A
modifications: synthetic construct; SITE 2: note = 2-Aminoisobutyric Acid; SITE 12: note = L-ornithine; SITE 13: note = alpha-methyl-leucine; SITE 17: note = Lysine is chemically modified through conjugation of the epsilon-amino group of the Lysine side chain with (2-[2-(2-Amino-ethoxy)-ethoxy]-acetyl)-(gamma-Glu)
B4: Example 260 (peptide)
chain: B1 chain with A29G, X35A, H41T
modifications: synthetic construct; SITE 2: note = 2-Aminoisobutyric Acid; SITE 12: note = L-ornithine; SITE 13: note = alpha-methyl-leucine; SITE 17: note = Lysine is chemically modified through conjugation of the epsilon-amino group of the Lysine side chain with (gamma-Glu)2-CO-(CH2)16-CO2H; SITE 20: note = 2-Am
B5: Example 261 (peptide)
chain: B1 chain with A29G, X35A, S39G, H41X
modifications: synthetic construct; SITE 2: note = 2-Aminoisobutyric Acid; SITE 12: note = L-ornithine; SITE 13: note = alpha-methyl-leucine; SITE 17: note = Lysine is chemically modified through conjugation of the epsilon-amino group of the Lysine side chain with (2-[2-(2-Amino-ethoxy)-ethoxy]-acetyl)-(gamma-Glu)
B6: Example 262 (peptide)
chain: B1 chain with Y25W, A29G, X35A, S39E, H41X
modifications: synthetic construct; SITE 2: note = 2-Aminoisobutyric Acid; SITE 12: note = L-ornithine; SITE 13: note = alpha-methyl-leucine; SITE 17: note = Lysine is chemically modified through conjugation of the epsilon-amino group of the Lysine side chain with (2-[2-(2-Amino-ethoxy)-ethoxy]-acetyl)-(gamma-Glu)
B7: Example 263 (peptide)
chain: B1 chain with Y25W, P31S, X35A, H41T
modifications: synthetic construct; SITE 2: note = 2-Aminoisobutyric Acid; SITE 12: note = L-ornithine; SITE 13: note = alpha-methyl-leucine; SITE 17: note = Lysine is chemically modified through conjugation of the epsilon-amino group of the Lysine side chain with (2-[2-(2-Amino-ethoxy)-ethoxy]-acetyl)-(gamma-Glu)
B8: Example 264 (peptide)
chain: B1 chain with Y25W, A29X, P31S, X35A, H41T
modifications: synthetic construct; SITE 2: note = 2-Aminoisobutyric Acid; SITE 12: note = L-ornithine; SITE 13: note = alpha-methyl-leucine; SITE 17: note = Lysine is chemically modified through conjugation of the epsilon-amino group of the Lysine side chain with (2-[2-(2-Amino-ethoxy)-ethoxy]-acetyl)-(gamma-Glu)
B9: Example 146 (peptide)
chain: B1 chain with X12K, A29G, P31E, X35A, H41S
modifications: synthetic construct; SITE 2: note = 2-Aminoisobutyric Acid; SITE 13: note = alpha-methyl-leucine; SITE 17: note = Lysine is chemically modified through conjugation of the epsilon-amino group of the Lysine side chain with (2-[2-(2-Amino-ethoxy)-ethoxy]-acetyl)-(gamma-Glu)-CO-(CH2) 16-CO2H; SITE 20: n
B10: Example 267 (peptide)
chain: B1 chain with Y25W, A29G, P31X, X35A, H41E
modifications: synthetic construct; SITE 2: note = 2-Aminoisobutyric Acid; SITE 12: note = L-ornithine; SITE 13: note = alpha-methyl-leucine; SITE 17: note = Lysine is chemically modified through conjugation of the epsilon-amino group of the Lysine side chain with (2-[2-(2-Amino-ethoxy)-ethoxy]-acetyl)-(gamma-Glu)
B11: Example 268 (peptide)
chain: B1 chain with Y25W, A29G, P31X, X35A, H41T
modifications: synthetic construct; SITE 2: note = 2-Aminoisobutyric Acid; SITE 12: note = L-ornithine; SITE 13: note = alpha-methyl-leucine; SITE 17: note = Lysine is chemically modified through conjugation of the epsilon-amino group of the Lysine side chain with (2-[2-(2-Amino-ethoxy)-ethoxy]-acetyl)-(gamma-Glu)
B12: Example 269 (peptide)
chain: B1 chain with Y25W, A29G, P31H, X35A
modifications: synthetic construct; SITE 2: note = 2-Aminoisobutyric Acid; SITE 12: note = L-ornithine; SITE 13: note = alpha-methyl-leucine; SITE 17: note = Lysine is chemically modified through conjugation of the epsilon-amino group of the Lysine side chain with (2-[2-(2-Amino-ethoxy)-ethoxy]-acetyl)-(gamma-Glu)
B13: Example 270 (peptide)
chain: B1 chain with Y25W, A29G, P31S, X35A
modifications: synthetic construct; SITE 2: note = 2-Aminoisobutyric Acid; SITE 12: note = L-ornithine; SITE 13: note = alpha-methyl-leucine; SITE 17: note = Lysine is chemically modified through conjugation of the epsilon-amino group of the Lysine side chain with (2-[2-(2-Amino-ethoxy)-ethoxy]-acetyl)-(gamma-Glu)

The binders below were run against hGLP-1R (Homo sapiens, UniProt P43220) (assay: cell-based or functional assay).
Chain of hGLP-1R (P43220 24-463): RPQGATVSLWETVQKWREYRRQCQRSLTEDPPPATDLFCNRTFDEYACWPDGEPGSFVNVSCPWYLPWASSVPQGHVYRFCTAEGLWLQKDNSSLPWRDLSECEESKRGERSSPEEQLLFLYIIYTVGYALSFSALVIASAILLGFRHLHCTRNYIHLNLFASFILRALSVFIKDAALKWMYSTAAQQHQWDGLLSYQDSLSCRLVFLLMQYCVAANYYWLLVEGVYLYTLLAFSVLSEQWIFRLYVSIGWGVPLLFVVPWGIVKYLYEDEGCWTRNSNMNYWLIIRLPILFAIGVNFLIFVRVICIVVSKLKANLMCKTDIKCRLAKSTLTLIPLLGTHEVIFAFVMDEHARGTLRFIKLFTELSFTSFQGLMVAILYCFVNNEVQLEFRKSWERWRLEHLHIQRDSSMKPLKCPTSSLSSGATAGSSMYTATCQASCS
B1 showed a Relative cAMP EC50 of 2.66 nM and a cAMP Rel EC50 (in the presence of 1% HSA) of 388 nM. B2 showed a Relative cAMP EC50 of 2.71 nM and a cAMP Rel EC50 (in the presence of 1% HSA) of 492 nM. Binder B3 has a Relative cAMP EC50 of 1.47 nM and a cAMP Rel EC50 (in the presence of 1% HSA) of 220 nM. B4 showed a Relative cAMP EC50 of 3.85 nM and a cAMP Rel EC50 (in the presence of 1% HSA) of 160 nM. In the case of B5, the Relative cAMP EC50 is reported as 3.12 nM and the cAMP Rel EC50 (in the presence of 1% HSA) is reported as 383 nM. For B6, the Relative cAMP EC50 was 4.39 nM and the cAMP Rel EC50 (in the presence of 1% HSA) was 400 nM. Work on B7 yielded a Relative cAMP EC50 of 1.32 nM and a cAMP Rel EC50 (in the presence of 1% HSA) of 257 nM. Binder B8 has a Relative cAMP EC50 of 4.67 nM and a cAMP Rel EC50 (in the presence of 1% HSA) of 688 nM. B9 gave a cAMP Rel EC50, nM (in the presence of 1% HSA) of 678 nM. For B10, the Relative cAMP EC50 was 5.86 nM and the cAMP Rel EC50 (in the presence of 1% HSA) was 1020 nM. B11 was tested, and the Relative cAMP EC50 was 3.14 nM and the cAMP Rel EC50 (in the presence of 1% HSA) was 437 nM. Binder B12 has a Relative cAMP EC50 of 3.23 nM and a cAMP Rel EC50 (in the presence of 1% HSA) of 428 nM. B13 gave a Relative cAMP EC50 of 3.2 nM and a cAMP Rel EC50 (in the presence of 1% HSA) of 658 nM.

These binders were tested against human glucagon receptor (human) (UniProt P47871) (assay: cell-based or functional assay).
Chain of human glucagon receptor (human) (P47871 26-477): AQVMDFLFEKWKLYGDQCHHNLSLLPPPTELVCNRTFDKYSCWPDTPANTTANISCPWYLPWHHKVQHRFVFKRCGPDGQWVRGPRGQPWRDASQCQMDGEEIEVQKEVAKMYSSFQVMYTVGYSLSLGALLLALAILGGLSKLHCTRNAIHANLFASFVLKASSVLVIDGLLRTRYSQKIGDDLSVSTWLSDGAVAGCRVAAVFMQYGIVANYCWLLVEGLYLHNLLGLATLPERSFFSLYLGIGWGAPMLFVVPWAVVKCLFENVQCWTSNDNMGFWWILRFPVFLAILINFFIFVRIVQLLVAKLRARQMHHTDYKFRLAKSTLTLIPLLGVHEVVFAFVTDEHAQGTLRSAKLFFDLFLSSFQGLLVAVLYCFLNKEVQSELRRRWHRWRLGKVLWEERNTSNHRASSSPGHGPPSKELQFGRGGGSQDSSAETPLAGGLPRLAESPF
Work on B1 yielded a Relative cAMP EC50 of 7.36 nM and a cAMP Rel EC50 (in the presence of 1% HSA) of 1210 nM. With B2 the Relative cAMP EC50 was 7.15 nM and the cAMP Rel EC50 (in the presence of 1% HSA) was 1280 nM. B3 showed a Relative cAMP EC50 of 2.55 nM and a cAMP Rel EC50 (in the presence of 1% HSA) of 317 nM. Work on B4 yielded a Relative cAMP EC50 of 5.04 nM and a cAMP Rel EC50 (in the presence of 1% HSA) of 162 nM. For B5, the Relative cAMP EC50 was 5.49 nM and the cAMP Rel EC50 (in the presence of 1% HSA) was 520 nM. For B6, the Relative cAMP EC50 was 9.77 nM and the cAMP Rel EC50 (in the presence of 1% HSA) was 720 nM. B7 gave a Relative cAMP EC50 of 7.53 nM and a cAMP Rel EC50 (in the presence of 1% HSA) of 893 nM. B8 showed a Relative cAMP EC50 of 6.29 nM and a cAMP Rel EC50 (in the presence of 1% HSA) of 1000 nM. Work on B9 yielded a cAMP Rel EC50, nM (in the presence of 1% HSA) of 463 nM. B10 gave a Relative cAMP EC50 of 5.74 nM and a cAMP Rel EC50 (in the presence of 1% HSA) of 1380 nM. B11 was tested, and the Relative cAMP EC50 was 7.69 nM and the cAMP Rel EC50 (in the presence of 1% HSA) was 1300 nM. Work on B12 yielded a Relative cAMP EC50 of 7.69 nM and a cAMP Rel EC50 (in the presence of 1% HSA) of 1100 nM. B13 gave a Relative cAMP EC50 of 5 nM and a cAMP Rel EC50 (in the presence of 1% HSA) of 1060 nM.

What follows are binders tested against T1, human GIP receptor (human) (assay: cell-based or functional assay).
B1 gave a Relative cAMP EC50 of 0.135 nM and a cAMP Rel EC50 (in the presence of 1% HSA) of 21 nM. With B2 the Relative cAMP EC50 was 0.154 nM and the cAMP Rel EC50 (in the presence of 1% HSA) was 23.3 nM. B3 showed a Relative cAMP EC50 of 0.114 nM and a cAMP Rel EC50 (in the presence of 1% HSA) of 18.4 nM. Binder B4 has a Relative cAMP EC50 of 0.251 nM and a cAMP Rel EC50 (in the presence of 1% HSA) of 12.4 nM. For B5, the Relative cAMP EC50 was 0.29 nM and the cAMP Rel EC50 (in the presence of 1% HSA) was 38.4 nM. Binder B6 has a Relative cAMP EC50 of 0.232 nM and a cAMP Rel EC50 (in the presence of 1% HSA) of 40.4 nM. For B7, the Relative cAMP EC50 was 0.169 nM and the cAMP Rel EC50 (in the presence of 1% HSA) was 25.7 nM. With B8 the Relative cAMP EC50 was 0.0884 nM and the cAMP Rel EC50 (in the presence of 1% HSA) was 12.4 nM. Work on B9 yielded a cAMP Rel EC50, nM (in the presence of 1% HSA) of 74.6 nM. In the case of B10, the Relative cAMP EC50 is reported as 0.279 nM and the cAMP Rel EC50 (in the presence of 1% HSA) is reported as 55.5 nM. For B11, the Relative cAMP EC50 was 0.274 nM and the cAMP Rel EC50 (in the presence of 1% HSA) was 33.7 nM. Work on B12 yielded a Relative cAMP EC50 of 0.288 nM and a cAMP Rel EC50 (in the presence of 1% HSA) of 21.9 nM. With B13 the Relative cAMP EC50 was 0.26 nM and the cAMP Rel EC50 (in the presence of 1% HSA) was 36.5 nM.
